The values that follow come from patent EP4660205A1 (Beijing Wisdomab Biotechnology Co., Ltd, dated 2025).

Read-outs that look alike come from different tables or passages of the source.

In assay [1] the target is T1, hIL-36R-His (extracellular domain of human IL-36R with C-terminal His tag) (human (homo sapiens), UniProt Q9HB29 20-335).
T1 construct: also called human hIL-36R-His
T1 sequence: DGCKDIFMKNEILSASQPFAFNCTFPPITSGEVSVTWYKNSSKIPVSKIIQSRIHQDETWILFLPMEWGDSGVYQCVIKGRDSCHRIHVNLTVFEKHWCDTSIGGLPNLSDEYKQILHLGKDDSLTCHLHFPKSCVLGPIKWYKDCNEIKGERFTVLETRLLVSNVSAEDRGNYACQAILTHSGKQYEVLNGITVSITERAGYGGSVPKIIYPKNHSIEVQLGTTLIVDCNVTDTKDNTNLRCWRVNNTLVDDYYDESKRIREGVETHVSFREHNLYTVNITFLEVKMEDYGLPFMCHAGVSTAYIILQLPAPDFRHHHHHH
In words: SPR (Biacore T200), antibody captured by anti-human Fc, hIL-36R-His as analyte, 1:1 model. Background: Surface plasmon resonance follows binding to a sensor surface in real time, without labels.

The target of assay [2] is T1, hIL-36R-His (extracellular domain of …). The description is as above. This is another data set of the same source.
Assay [3] has as its target T2, human IL-36R on the cell surface (HEK-Blue IL-36 cells, HaCAT cells, human CD14+ monocytes) (human, UniProt Q9HB29 20-575).
T2 sequence (looked up): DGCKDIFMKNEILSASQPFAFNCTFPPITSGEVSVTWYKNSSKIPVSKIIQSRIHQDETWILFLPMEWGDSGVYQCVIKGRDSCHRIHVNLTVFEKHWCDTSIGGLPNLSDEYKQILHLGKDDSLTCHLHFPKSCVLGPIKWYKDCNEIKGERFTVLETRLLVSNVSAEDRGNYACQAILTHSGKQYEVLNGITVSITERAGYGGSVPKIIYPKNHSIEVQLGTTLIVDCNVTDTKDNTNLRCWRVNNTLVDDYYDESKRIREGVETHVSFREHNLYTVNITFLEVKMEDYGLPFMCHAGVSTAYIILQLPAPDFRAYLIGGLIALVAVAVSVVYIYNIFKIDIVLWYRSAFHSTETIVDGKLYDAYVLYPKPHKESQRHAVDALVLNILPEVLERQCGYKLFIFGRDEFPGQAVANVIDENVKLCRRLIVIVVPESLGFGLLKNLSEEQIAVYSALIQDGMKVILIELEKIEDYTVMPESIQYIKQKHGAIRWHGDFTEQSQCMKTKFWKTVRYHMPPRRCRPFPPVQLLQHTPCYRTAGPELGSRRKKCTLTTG
In words: cell-based or functional assay.

Assay [4] concerns the target T2, human IL-36R on the cell surface …. In words: cell-based or functional assay. The source holds these as a separate data set.
Assay [5] shares this target. In words: cell-based or functional assay. This is another data set of the same source.

B1: R49E11VH-h3+L26B11VK (antibody, V domains shown)
VH: QVQLVQSGAEVKKPGASVKVSCKASGYSFTSSWIHWVRQAPGQGLEWMGEINPGSGRSNYNENFQGRVTMTVDTSISTAYMELSRLRSDDTAVYYCTVVFYGEPYFPFWGQGTLVTVSS
VL: EIVLTQSPGTLSLSPGERATLSCRASQSVIYSYLAWYQQKPGQAPRLLIYSASKRASGIPDRFSGSGSGTDFTLTISRLEPEDFAVYYCQQHAGIPVTFGQGTKVEIK
notes: Found as a Fab on phage; also called anti-human IL-36R monoclonal antibody; IL-36R monoclonal antibody
Turning to B1, in assay [1], the Kd (usually the constant that tells how readily two partners part at equilibrium) was found to be 2900 pM; the koff (usually the first-order rate constant of dissociation) was 6.63e-05 s⁻¹; the on-rate constant (kon) (as a rule, the second-order rate constant of association) was 22800 M⁻¹ s⁻¹. In assay [2], this molecule yielded a Kd of 1760 pM, an off-rate constant (koff) of 6.83e-05 s⁻¹ and an on-rate constant (kon) of 38900 M⁻¹ s⁻¹. In assay [3], the “IC50 for inhibiting IL-36α from inducing hIL-8 secretion by HaCAT cells” value (from here on “IC50 for inhibiting IL-36α”) turned out to be 53.3 pM, the “IC50 for inhibiting IL-36β from inducing hIL-8 secretion by HaCAT cells” value (shortened to “IC50 for inhibiting IL-36β”) amounted to 276 pM and the “IC50 for inhibiting IL-36γ from inducing hIL-8 secretion by HaCAT cells” value (“IC50 for inhibiting IL-36γ … by HaCAT cells” below) turned out to be 1900 pM. The “IC50 for inhibiting IL-36γ-induced hIL-8 secretion by human monocytes” value in assay [4] came to 67.7 pM. In assay [5], the “IC50 for inhibiting IL-36α” value turned out to be 55.9 pM, the “IC50 for inhibiting IL-36β” value came out at 280 pM and the “IC50 for inhibiting IL-36γ … by HaCAT cells” value is 1580 pM.

B2: Spesolimab (antibody, V domains shown)
VH: QVQLVQSGAEVKKPGASVKVSCKASGYSFTSSWIHWVKQAPGQGLEWMGEINPGNVRTNYNENFRNKVTMTVDTSISTAYMELSRLRSDDTAVYYCTVVFYGEPYFPYWGQGTLVTVSS
VL: QIVLTQSPGTLSLSPGERATMTCTASSSVSSSYFHWYQQKPGQAPRLWIYRTSRLASGVPDRFSGSGSGTDFTLTISRLEPEDAATYYCHQFHRSPLTFGAGTKLEIK
notes: Made in house from the variable regions of US9023995B2 as a whole IgG1m3 subtype antibody (control)
On to B2, for which, in assay [1], the dissociation constant Kd was determined as 2560 pM, the dissociation rate constant (koff) was determined as 7.39e-05 s⁻¹ and the on-rate constant (kon) turned out to be 28800 M⁻¹ s⁻¹. In assay [3], the “IC50 for inhibiting IL-36α” value was 43.3 pM, the “IC50 for inhibiting IL-36β” value stood at 172 pM and the “IC50 for inhibiting IL-36γ … by HaCAT cells” value amounted to 642 pM. In addition, the “IC50 for inhibiting IL-36γ-induced hIL-8 secretion by human monocytes” value in assay [4] was 28.8 pM. Also, in assay [5], the “IC50 for inhibiting IL-36α” value was determined as 93.9 pM, the “IC50 for inhibiting IL-36β” value was found to be 114 pM and the “IC50 for inhibiting IL-36γ … by HaCAT cells” value came out at 682 pM.
